Results reported in US11203633B2, “Polynucleotides encoding antibodies or antigen binding fragments thereof that bind pseudomonas perv” (priority 2011, dated 2021).

What was measured:
[1] = tested on: P. aeruginosa (6077 exoU+; 6206) lysis of rabbit red blood cells; assay: Rabbit red blood cell (RBC) lysis inhibition assay; type: cell-based, Pseudomonas aeruginosa; settings: strain 6077; FIG. 12D-E
Method: Percent inhibition of cytotoxicity analysis was analysed for the parental V2L2 mAb, mAb166 (positive control) and R347 (negative control), where the antibodies were administered to cultured broncho-epithelial cell line A549 combined with log-phase P. aeruginosa strain 6077 (exoU+) at a MOI of approximately 10. A549 lysis was assayed by measuring released lactate dehydrogenase (LDH) activity and lysis in the presence of mAbs was compared to wells without mAb to determine percent inhibition. The V2L2 mAb, mAb166 (positive control) and R347 (negative control) were evaluated for their ability to prevent lysis of RBCs, where the antibodies were mixed with log-phase P. aeruginosa 6077 (exoU^+) and washed rabbit red blood cells (RBCs) and incubated for 2 hours at 37°. Intact RBCs were pelleted and the extent of lysis determined by measuring the OD405 of the cell-free supernatant. Lysis in the presence of anti-PcrV mAbs was compared to wells without mAb to determine percent inhibition. The positive control antibody, mAb166, is a previously characterized anti-PcrV antibody (J Infect Dis. 186: 64-73 (2002), Crit Care Med. 40: 2320-2326 (2012)).

rPcrV protein = assay: Binding kinetics, Bio-Rad ProteOn XPR36; set-up: species or system Pseudomonas aeruginosa; settings: antibody captured, rPcrV injected; FIG. 12G-H
Method: Binding kinetics of V2L2-GL and V2L2-MD were measured using a Bio-Rad ProteOn™ XPR36 instrument. Antibodies were captured on a GLC bisensor chip using anti-human IgG reagents. rPcrV protein was injected at multiple concentrations and the dissociation phase followed for 600 seconds. Data was captured and analyzed using ProteOn Manager software. […] The clone V2L2-MD had increased Kd by 2-3 folds over V2L2-GL.

B1: V2L2-MD: optimized V2L2-GL mAb; germlined lead optimized anti-PcrV antibody (antibody, V domains shown)
VH: EMQLLESGGGLVQPGGSLRLSCAASGFTFSSYAMNWVRQAPGEGLEWVSAITISGITAYYTDSVKGRFTISRDNSKNTLYLQMNSLRAGDTAVYYCAKEEFLPGTHYYYGMDVWGQGTTVTVSS
VL: AIQMTQSPSSLSASVGDRVTITCRASQGIRNDLGWYQQKPGKAPKLVIYSASTLQSGVPSRFSGSGSGTDFTLSISSLQPDDFATYYCLQDYNYPWTFGQGTKVEIK
modifications: V2L2-MD VH; V2L2-MD and V2L2-GL VL
With B1 the “prevention of RBC lysis” value [1] was “demonstrated prevention of RBC lysis” and the “change of Kd over V2L2-GL” value (rPcrV protein) was 2-3 folds.
